What all share (test): EMSA
In general terms: In EMSA bound probe runs differently from free probe, usually more slowly.

The target of data set [1] is T1, Dnmt5 full-length (Cryptococcus neoformans, UniProt J9VI03 1-2377).
A further data set addresses T2, MBP-Dnmt5(345-747) (Cryptococcus neoformans, UniProt J9VI03 345-747).
T2 sequence: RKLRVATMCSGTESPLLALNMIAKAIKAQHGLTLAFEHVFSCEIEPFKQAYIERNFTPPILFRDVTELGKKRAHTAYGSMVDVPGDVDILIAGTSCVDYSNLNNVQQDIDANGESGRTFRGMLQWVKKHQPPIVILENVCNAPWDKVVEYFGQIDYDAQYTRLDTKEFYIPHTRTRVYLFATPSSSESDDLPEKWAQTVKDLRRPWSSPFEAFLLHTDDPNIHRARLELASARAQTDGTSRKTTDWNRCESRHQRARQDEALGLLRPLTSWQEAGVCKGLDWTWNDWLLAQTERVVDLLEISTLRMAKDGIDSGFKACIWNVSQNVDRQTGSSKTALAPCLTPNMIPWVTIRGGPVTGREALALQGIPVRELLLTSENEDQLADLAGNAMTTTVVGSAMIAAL

The target in data set [2] is T1, Dnmt5 full-length. The source holds these as a separate data set.
Data set [3] concerns the target T3, MBP-Dnmt5(1-150, W87A, Y90A) (Cryptococcus neoformans, UniProt J9VI03 1-150, W87A;Y90A).
T3 sequence: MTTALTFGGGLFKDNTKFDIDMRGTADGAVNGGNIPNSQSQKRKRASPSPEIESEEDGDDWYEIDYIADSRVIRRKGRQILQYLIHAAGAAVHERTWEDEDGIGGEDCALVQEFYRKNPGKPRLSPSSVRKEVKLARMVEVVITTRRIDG

B1: Unmethylated 60 bp DNA (3 CG), Cy5 (dsDNA)
DNA 1: CATGGCCTAAGCCGGACTGAATGAGCAAGCTTCCGGAGAATTCTGCCGGACTGCAGATGC
DNA 2: GCATCTGCAGTCCGGCAGAATTCTCCGGAAGCTTGCTCATTCAGTCCGGCTTAGGCCATG
For orientation: Kd means the constant that tells how readily two partners part at equilibrium. Consider B1, for which the Kd worked out at 20 ± 5 nM with Dnmt5 full-length [1] and 7 ± 3 nM in the data set with MBP-Dnmt5(345-747).

B2: Unmethylated 60 bp DNA, one CG, Cy5 (dsDNA)
DNA 1: CATGGCCTAAGCAGGACTGAATGAGCAAGCTTCCGGAGAATTCTGCAGGACTGCAGATGC
DNA 2: GCATCTGCAGTCCTGCAGAATTCTCCGGAAGCTTGCTCATTCAGTCCTGCTTAGGCCATG
As for B2, the binding signal with Dnmt5 full-length [2] was 1 reference; abasic DNA binds 5-fold tighter.

B3: Hemimethylated 60 bp DNA (3 CG), Cy5 (dsDNA)
DNA 1: CATGGCCTAAGCCGGACTGAATGAGCAAGCTTCCGGAGAATTCTGCCGGACTGCAGATGC
DNA 2: GCATCTGCAGTCCGGCAGAATTCTCCGGAAGCTTGCTCATTCAGTCCGGCTTAGGCCATG
modifications: 5mC at strand 1 positions 13, 34, 47
B3: the dissociation constant Kd with Dnmt5 full-length [1] was less than 1 nM; with MBP-Dnmt5(345-747), 6 ± 2 nM. Also, the binding result in data set [3] is “no binding”.

The values above are taken from doi:10.1101/2020.01.05.895227.
